From patent US12065505B2, “Antibodies and antigen binding peptides for factor XIa inhibitors and uses thereof” (Bristol-Myers Squibb Company, priority 2021, dated 2024)
Where two headings read alike, the source gives them in different places.

What was measured:
[1] = Competitive TR-FRET assay modified for mAbs and Fabs (T0, T24, T48); assay type: binding; conditions: 37° C.; for T24 hr IC50 shift: IC50 shift at 24 hr relative to T0; for T48 hr IC50 shift: IC50 shift at 48 hr relative to T0
Description: A competitive TR-FRET (time-resolved fluorescence resonance energy transfer) assay was developed to rank-order the dissociation of α-Compound A mAbs from Compound A as equilibrium is reached at 37° C. The assay buffer was HBS-N (10 mM HEPES, 150 mM NaCl, pH 7.4; GE Healthcare), 0.1% (w/v) BSA (bovine serum albumin; Sigma), 2% DMSO (dimethyl sulfoxide; Sigma). All reagents were prepared in assay buffer and dispensed in equal volumes into white 384 microplates with final volume of 20 μl per well at the following final concentrations: 4 nM COMPOUND 5, the biotinylated analog of COMPOUND 2, a 100 0.1 nM 7-pt titration of human α-Compound A antibodies, 0.1 nM europium-labeled α-mouse IgG (LANCE Eu-W1024; PerkinElmer), 5 nM streptavidin-D2 (Cisbio), and 4 nM mAb 26D5 VH_A10G_Y33A_S53P_M89V_G95A; VK_W32N_H38Q (P1-075621, the second-round optimization parent 26D5-295-B08 formatted with mouse IgG Fc). COMPOUND 5 and α-Compound A antibody titrations were added first to the microplate, and were subjected to an initial incubation at 37° C., 1000 rpm, for one hour to facilitate antibody binding to the compound. After the initial incubation period, the europium α-mouse IgG, streptavidin-D2, and 26D5-mouse IgG (P1-075621) were added sequentially, then the plate was returned to 37° C., 1000 rpm incubation. Microplates were read using a Perkin Elmer EnVision plate reader, and the measured FRET signal was defined as [665 nm]/[620 nm]*10,000. Microplates were read at 30 minutes (T0) and after 24 hour (T24) intervals. For each antibody titration, the FRET signal was converted to % Inhibition relative to wells without α-Compound A antibody: (100 ((FRET at [antibody concentration]/FRET at 0 nM)*100). The % inhibition antibody titrations were plotted using TIBCO Spotfire (v.7), and the IC50 was determined using a 4-parameter model curve fit. The IC50s at each timepoint were reported, as well as the IC50 curve shift relative to T0. An IC50 curve shift indicated α-Compound A antibody dissociation from the biotinylated compound as the assay reached equilibrium, which subsequently allowed 26D5-mouse IgG1 (P1-075621) competitor to bind and generate the FRET signal detected in the assay.
The competitive TR-FRET assay defined above was also modified to assess optimized 26D5 antibody progeny that were reformatted as Fabs. The α-Compound A antibody and Fab titration series were extended to 250 0.244 nM (11-pt titration), and replicates of each concentration were collected in quadruplicate. The assay incubation was extended to include an additional 48 hr timepoint to ensure equilibrium was reached, and T48 hr IC50 and IC50 shifts were reported. The % inhibition titrations were plotted in Graphpad Prism (v.8) and fit to a 4-parameter model. All other experimental setup conditions were otherwise identical to the antibody TF-FRET assay.
Competitive FRET data collected for affinity-optimized α-Compound A 26D5 progeny comparing human antibodies and Fabs are shown in FIG. 14 and Table 13. Each panel represents a single α-Compound A sequence, with antibody (mAb, solid lines, circles) and Fab (dotted lines, triangles) formats overlaid. […] The names of the mAbs/Fabs in Table 13 refer to the corresponding sequences in Tables 1-3. All mAbs listed in Table 13 were in a human IgG1f/LC kappa format.

[2] = SPR (Biacore) Protein A mAb capture, Compound A injected; conditions: 37° C., binding to Compound A, for rank ordering only
Description: The binding of hybridoma expressed 26D5 parent mAb (VH SEQ ID NO: 83 and VL SEQ ID NO: 98 in IgG1 f format)(P1-072224) and affinity matured mAbs to Compound A was examined by SPR (Biacore™) using a protein A capture method. The running buffer was 1×PBS (phosphate buffered saline, pH 7.4) with 0.05% Tween 20 and 2% DMSO. Binding experiments were carried out at 37° C. Protein A was coated on a CM5 S-series sensor chip (Cytiva, Cat. No. 29149603) at high density (2000+ RUs of protein A). The immobilization of protein A was carried out using the standard amine coupling immobilization procedure recommended by the manufacturer. The affinity matured antibody was then captured at a concentration of 2 ug/mL on the protein A surface at a flow rate of 3 uL/min for 2 minutes. Compound A was then injected over the captured antibody at concentrations spanning 100-3 nM (100, 50, 25, 12.5, 6.25, 3.125 nM) (FIG. 10) and for screening concentrations spanning 100-3 nM (100, 33, 11 nM) for 2 minutes at a flow rate of 100 uL/min and allowed to dissociate for at least 450 seconds. The chip surface was regenerated after each cycle with a 40 second pulse of 10 mM Glycine, pH 1.5. Background binding to the protein A surface alone was used to subtract non-specific binding. All experiments were run on a Biacore T200 surface plasmon resonance instrument using Biacore T200 Control software v. 2. Data analysis was performed using Biacore T200 evaluation software v 3.1. Apparent affinities were determined for rank ordering only since dissociation rates were too slow to be measured by Biacore. The names of the mAbs in Table 10 refer to mAbs having the H and L chain sequences of the corresponding Fabs in Table 3 in an IgG1f format.

[3] = read at 30 minutes (T0), competitor 26D5-mouse IgG (P1-075621), read-out: T0 IC50
[4] = apparent affinity, read-out: KD

| Molecule | IC50 ([1]; 24 hr, read-out: T24 hr IC50) [nM] | IC50 ([1]; 48 hr, read-out: T48 hr IC50) [nM] | T24 hr IC50 shift [1] [nM] | T48 hr IC50 shift [1] [nM] | IC50 [1, 3] [nM] | Kd [2, 4] [nM] | Ka ([2]; apparent) [M⁻¹ s⁻¹] | Kd ([2]; apparent) [s⁻¹] |
| --- | --- | --- | --- | --- | --- | --- | --- | --- |
| 26D5-75768-348-A10-mAb: human IgG1f/kappa mAb; VH SEQ ID NO: 56, VL SEQ ID NO: 89 (antibody, V domains shown) VH: EVQLVESGGGLIQPGGSLRLSCAASGFTVSSNAVSIVRQAPGKGLEWVAYIYPGGRTYYADSVKGRFTISRDNSKNTLYLQMNSLRAEDTAVYYCTIGGFGGGDYWGQGTLVTVSS VL: DIQMTQSPSSVSASVGDRVTITCRASQGISSNNQWYQQKPGKAPKLLIYYASSLQSGVPSRFSGSGSGTDFTLTISSLQPEDFATYYCQQGNEFPLTFGGGTKVEIK | 2.2 | 2.3 | 1.0 | 1.1 | 1.2 | < 0.1 | 3.8e+06 | <0.00041 |
| 26D5-75229-343-A10-mAb: human IgG1f/kappa mAb; VH SEQ ID NO: 52, VL SEQ ID NO: 84 (antibody, V domains shown) VH: EVQLVESGGGLIQPGGSLRLSCAASGFTVSSNAMSWVRQAPGKGLEWVSYIYPGGRTYYADSVKGRFTISRDNSKNTLYLQMNSLRAEDTAVYYCARAGFGGPDYWGQGTLVTVSS VL: DIQMTQSPSSVSASVGDRVTITCRASQGISSNLAWYQQKPGKAPKLLIYAASSLQSGVPSRFSGSGSGTDFTLTISSLQPEDFATYYCQQANQFPLTFGGGTKVEIK | 2.4 | 2.5 | 1.1 | 1.1 | 1.3 | < 0.07 | 770000 | <5e-05 |
| 26D5-75214-343-F06-mAb: human IgG1f/kappa mAb; VH SEQ ID NO: 53, VL SEQ ID NO: 85 (antibody, V domains shown) VH: EVQLVESGGGLIQPGGSLRLSCAASGFTVSSNAMSWVRQAPGKGLEWVSFIYPGGRTYYADSVKGRFTISRDNSKNTLYLQMNSLRAEDTAVYYCARAGFGGPDYWGQGTLVTVSS VL: DIQMTQSPSSVSASVGDRVTITCRASQGISSNLAWYQQKPGKAPKLLIYAASSLQSGVPSRFSGSGSGTDFTLTISSLQPEDFATYYCQQANEFPLTFGGGTKVEIK | 2.5 | 2.7 | 1.3 | 1.4 | 1.3 | < 0.05 | 1.2e+06 | <5e-05 |
| 26D5-75202-343-A09-mAb: human IgG1f/kappa mAb; VH SEQ ID NO: 54, VL SEQ ID NO: 86 (antibody, V domains shown) VH: EVQLVESGGGLIQPGGSLRLSCAASGFTVSSNAMSWVRQAPGKGLEWVSYIYPGGRTYYADSVKGRFTISRDNSKNTLYLQMNSLRAEDTAVYYCARAGFGGGDYWGQGTLVTVSS VL: DIQMTQSPSSVSASVGDRVTITCRASQGIYSNLAWYQQKPGKAPKLLIYAASSLQSGVPSRFSGSGSGTDFTLTISSLQPEDFATYYCQQANEFPLTFGGGTKVEIK | 2.5 | 2.9 | 1.1 | 1.5 | 1.4 | < 0.09 | 590000 | <5e-05 |
| 26D5-75203-343-B09-mAb: human IgG1f/kappa mAb; VH SEQ ID NO: 54, VL SEQ ID NO: 87 (antibody, V domains shown) VH: EVQLVESGGGLIQPGGSLRLSCAASGFTVSSNAMSWVRQAPGKGLEWVSYIYPGGRTYYADSVKGRFTISRDNSKNTLYLQMNSLRAEDTAVYYCARAGFGGGDYWGQGTLVTVSS VL: DIQMTQSPSSVSASVGDRVTITCRASQGISSNLAWYQQKPGKAPKLLIYAASTLQSGVPSRFSGSGSGTDFTLTISSLQPEDFATYYCQQANEFPLTFGGGTKVEIK | 3 | 3.1 | 0.4 | 0.5 | 2.6 | < 0.05 | 1.2e+06 | <5e-05 |
| P1-073708-1: 26D5 parent Fab (Fab 26D5-GV-Q); VH SEQ ID NO: 82, VL SEQ ID NO: 99 (antibody, V domains shown) VH: EVQLVESGGGLIQPGGSLRLSCAASGFTVSSNYMSWVRQAPGKGLEWVSFIYSGGRTYYADSVKGRFTISRDNSKNTLYLQMNSLRAEDTAVYYCARGGFGGGDYWGQGTLVTVSS VL: DIQMTQSPSSVSASVGDRVTITCRASQGISSWLAWYQQKPGKAPKLLIYAASSLQSGVPSRFSGSGSGTDFTLTISSLQPEDFATYYCQQANSFPLTFGGGTKVEIK | > 28.2 | > 28.8 | >25.7 | >26.2 | 2.6 | – | – | – |
| P1-074468-1: first round optimization progeny Fab; VH SEQ ID NO: 62, VL SEQ ID NO: 88 (antibody, V domains shown) VH: EVQLVESGGGLIQPGGSLRLSCAASGFQVSSNAMSWVRQAPGKGLEWVSFIYPGGRTYYADSVKGRFTISRDNSKNTLYLQMNSLRAEDTAVYYCARGGFGGGDYWGQGTLVTVSS VL: DIQMTQSPSSVSASVGDRVTITCRASQGISSNLAWYQQKPGKAPKLLIYAASSLQSGVPSRFSGSGSGTDFTLTISSLQPEDFATYYCQQANSFPLTFGGGTKVEIK | > 38.2 | > 43.1 | >36.0 | – | 2.2 | – | – | – |
